Literature values, collected in paper PMC8526019.

What was measured:
ATG3 (Homo sapiens) = ATG3 (Homo sapiens) (UniProt Q9NT62)
[1] = biological target: Atg7 (Saccharomyces cerevisiae) (UniProt P38862)
ATG14 (Homo sapiens) = ATG14 (Homo sapiens) (UniProt Q6ZNE5)
[2] = biological target: E-cadherin (Homo sapiens) (UniProt P12830)

UniProt Q6ZNE5, sequence (Q6ZNE5 whole entry): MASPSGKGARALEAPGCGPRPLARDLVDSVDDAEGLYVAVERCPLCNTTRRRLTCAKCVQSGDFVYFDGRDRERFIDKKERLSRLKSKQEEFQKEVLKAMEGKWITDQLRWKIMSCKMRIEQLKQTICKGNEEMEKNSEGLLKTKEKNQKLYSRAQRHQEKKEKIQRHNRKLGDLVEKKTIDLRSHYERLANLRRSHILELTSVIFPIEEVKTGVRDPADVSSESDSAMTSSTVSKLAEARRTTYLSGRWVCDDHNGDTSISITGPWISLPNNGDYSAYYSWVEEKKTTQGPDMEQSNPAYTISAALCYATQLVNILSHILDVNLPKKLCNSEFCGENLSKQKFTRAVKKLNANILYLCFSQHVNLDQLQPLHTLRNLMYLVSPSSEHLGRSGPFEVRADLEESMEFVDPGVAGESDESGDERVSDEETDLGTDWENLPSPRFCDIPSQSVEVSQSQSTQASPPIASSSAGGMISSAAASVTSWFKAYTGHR
UniProt Q9NT62, sequence (Q9NT62 whole entry): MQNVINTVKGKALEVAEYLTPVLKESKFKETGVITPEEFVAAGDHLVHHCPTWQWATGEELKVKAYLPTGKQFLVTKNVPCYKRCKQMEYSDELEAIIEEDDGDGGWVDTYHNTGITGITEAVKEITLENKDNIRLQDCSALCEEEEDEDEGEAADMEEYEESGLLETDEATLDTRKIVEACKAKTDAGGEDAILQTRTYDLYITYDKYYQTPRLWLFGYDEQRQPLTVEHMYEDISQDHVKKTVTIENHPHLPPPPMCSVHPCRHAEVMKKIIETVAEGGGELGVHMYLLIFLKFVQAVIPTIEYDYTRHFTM

ATG12 (from UniProt O94817)
Kd (ATG3 (Homo sapiens)): 50 nM

Atg7 (from UniProt P38862)
Kd [1]: 1 nM

BECN1 (from UniProt Q14457)
Kd (ATG14 (Homo sapiens)): 3200 nM

E-cadherin (from UniProt P12830)
Kd [2]: 160000 nM
